Laboratory results published in PMC4736712, “Direct α-synuclein promoter transactivation by the tumor suppressor p53”.

Experiments:
[1] = target: T1, p53 (wild-type recombinant, p53r) (UniProt P04637 1-393); experiment: EMSA; 200 ng p53, 20 fmol probe; shift blocked by anti-p53 pab421 or DO1; 1X binding buffer (Promega), 100 ng poly(dI-dC), 10 mM DTT, 1 mg/ml BSA, 4 °C, 30 min; 5% native PAGE at 4 °C; salt and pH not stated; details: protein: commercial; chain copies: 4; label: 5' biotin; blunt
T1 sequence (P04637 whole entry): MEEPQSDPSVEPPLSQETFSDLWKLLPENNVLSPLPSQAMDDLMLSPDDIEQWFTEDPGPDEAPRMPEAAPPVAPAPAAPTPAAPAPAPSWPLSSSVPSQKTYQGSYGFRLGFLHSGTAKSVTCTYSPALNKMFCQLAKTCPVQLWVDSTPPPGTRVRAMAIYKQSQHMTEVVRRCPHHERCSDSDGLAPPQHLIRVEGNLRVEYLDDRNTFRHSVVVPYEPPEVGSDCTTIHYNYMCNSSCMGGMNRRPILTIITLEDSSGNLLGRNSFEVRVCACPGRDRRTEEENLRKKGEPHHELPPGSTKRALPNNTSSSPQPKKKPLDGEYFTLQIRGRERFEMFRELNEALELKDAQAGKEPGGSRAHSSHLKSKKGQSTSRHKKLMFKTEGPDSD

[2] = target: T1, p53 (wild-type recombinant, p53r); experiment: competition EMSA; 4 pmol cold competitor (200-fold excess) blocks shift of N1; 1X binding buffer (Promega), 100 ng poly(dI-dC), 10 mM DTT, 1 mg/ml BSA, 4 °C, 30 min; 5% native PAGE at 4 °C; salt and pH not stated; details: protein: commercial; chain copies: 4; blunt

B1: alpha-syn promoter probe (p53 half-site) (dsDNA)
DNA 1: CCTTTCGCTGGAGACATGCCCTTCCATCCTGTCAAAGCCC
DNA 2: GGGCTTTGACAGGATGGAAGGGCATGTCTCCAGCGAAAGG
B1: binds [1].

B2: unlabeled specific competitor (comp-sp) (dsDNA)
DNA 1: B1 DNA 1
DNA 2: B1 DNA 2
B2: binds [2].
